Literature values as cited in article PMC7322545.

Assays:
CCL3 (Homo sapiens) = CCL3 (Homo sapiens) (UniProt P10147)
CCL4 (Homo sapiens) = CCL4 (Homo sapiens) (UniProt P13236)
CCL18 (Homo sapiens) = CCL18 (Homo sapiens) (UniProt P55774)

Measured: Kd

UniProt P55774, sequence (P55774 24-89): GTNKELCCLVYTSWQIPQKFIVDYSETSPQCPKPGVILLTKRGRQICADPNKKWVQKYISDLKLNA
UniProt P10147, sequence (P10147 24-92): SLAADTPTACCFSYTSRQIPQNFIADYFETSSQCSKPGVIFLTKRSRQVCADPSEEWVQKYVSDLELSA
UniProt P13236, sequence (P13236 24-92): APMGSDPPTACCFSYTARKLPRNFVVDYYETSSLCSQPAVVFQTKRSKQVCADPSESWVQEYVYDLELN

EVA-1 (from UniProt P0C8E7)
< 5 nM: all assays above
